Laboratory results from patent publication US20160281104A1 (KOREA ATOMIC ENERGY RESEARCH INSTITUTE, published 2016).

Target: the molecule itself
Experiment: size exclusion chromatography (Superdex 200) and native PAGE; self-association

B1: alkyl hydroperoxide reductase subunit F (AhpF) protein of Pseudomonas aeruginosa (enzyme)
chain: MLDANLKTQLKAYLEKVSQPFEIVASLDDSDKSRELLGLLQDIVGLTDKITLKTDGSDARKPSFSLNRPGADIGLRFAGIPMGHEFTSLVLALLQVGGHPSKLDADVIEQVKGIEGTFEFETYFSLSCQNCPDVVQALNLMAVLNPNIRHVAIDGALFQDEVEARQIMSVPSIYLNGEVFGQGRMGVEEILAKIDTGAAARDAEKLTARDAFDVLVVGGGPAGAAAAIYAARKGIRTGVAAERFGGQVLDTMAIENFISVQETEGPKLARALEEHVRHYEVDIMNLQRASKLVPAKNAGELHEVRFESGGSLKAKTLILATGARWREMGVPGEQEYKAKGVCFCPHCDGPLFKGKRVAVIGGGNSGVEAAIDLAGIVAHVTLLEFDSKLRADAVLQRKLYSLPNVEVITSALTSEVKGDGQKVTGLVYKDRNSEEFKSIELEGIFVQIGLLPNTEWLKGSVELSPRGEIIVDARGETSLPGIFAAGDVTTVPYKQIVIAVGEGAKASLSAFDHLIRTSAPE
notes: Recombinant protein cloned from P. aeruginosa PAO1 genomic DNA and expressed from pET28a in E. coli BL21(DE3); It was purified on Ni-NTA and released from the resin with thrombin, so the His tag was cleaved; also called PaAhpF; AhpF(PA)
B1: binds.
